Measurements: patent US20250026815A1 (GAN AND LEE PHARMACEUTICALS, published 2025)
Substitutions are numbered along the chain they refer to.

B1: R3-39A3QH (antibody, human IgG1, kappa, V domains shown)
VH: QVKLEESGPELVKPGASVKISCKASGYAFSSSWVNWVQQRPGQGLEWIGRIYPGDGETKYSGKFRGKATLTADKSSNTVYMQVSSLTSVDSAVYFCAREGGLITSSGYYHAMDYWGQGTSVTVSS
VL: DIVLTQSPPSLAVSLGQRATISCRASKSVDSYGNGFMHWYQQKPGQPPKLLIFLASNLESGVPARFSGSGSRTDFTLTIDPVEADDAASYYCQQSDEDPTFGGGTKLEIKR
notes: also called chimeric antibody of R3-39A3
B2: R18-11B1QH (antibody, human IgG1, kappa, V domains shown)
VH: EVQLEESGPELVKPGASVKISCKSSAQTFSGSWINWVKQRPGQGLEWIGRIFPGDGDTKYNMNFTGKATLTADKSSNTAYMHVSSLTSVDSAVYFCARYDGYYDIGYFDVWGAGTTVTVSS
VL: DIVMTQTPASLAVSLGQRATISCRASASVDSYGNKFIHWYQQKPGQPPKLLISLASNLESGVPARFSGSGSRTDFTLTIDPVEADDAATYYCQQTNEDPWTFGGGTKLEIKR
notes: also called chimeric antibody of R18-11B1
B3: R10-6A11QH (antibody, human IgG1, kappa, V domains shown)
VH: QVKLEESGPGILQPSQTLSLTCSFSGFSLSTSGMGVSWIRQPSGKGLEWLAHIYWDDDKNYNPSLKSRLTISKDTSRNQVFLKITSVDTADTATYYCARKIYYDYDYALDYWGQGTSVTVSS
VL: DIVMTQAAFSNPVTLGTSASISCRSSKSLLHSNGITYLCWFLQKPGQSPQLLIYQMSNLASGVPDRFSGSGSGTDFTLRISRVEAEDVGVYYCAQNLELWTFGGGTKLEIKR
notes: also called chimeric antibody of R10-6A11
B4: R3-16A10QH (antibody, human IgG1, kappa, V domains shown)
VH: EVKLEESGPELVKPGASVKISCKTSGYAFSDSWMNWVKQRPGQGLEWIGRIYPGDGDTQYNGKVKGKATLTADKSSSTAYMQVSSLTSVDSAVYFCAREGGMITSSGYYHALDYWGQGTSVTVSS
VL: DIVMTQSPASLAVSLGQRTTISCRASESVDSYGNSFLNWYQQKPGQPPKVLIYLASNLESGVPARFSGSGSRTDFTLIIDPVEADDAATYYCQQNNEDPTFGGGTKLEIKR
notes: also called chimeric antibody of R3-16A10
B5: R3-38B6QH (antibody, human IgG1, kappa, V domains shown)
VH: B4 VH with E1Q, K3Q, T24A, D31S, N61H, S106N
VL: B4 VL with S7T, P8T, L15Q, T19A, R24S, L37M, I78T
notes: also called chimeric antibody of R3-38B6
B6: R18-22D7QH (antibody, human IgG1, kappa, V domains shown)
VH: EVKLLESGGGLVQPGGSLKLSCAASGFDFSRYWMSWVRQAPGKGLEWIGEINPDSSTINYTPSLKDKFIISRDNAKNTLYLQMSKVRSEDTALYYCARRGGISYAMDYWGQGTSVTVSS
VL: DIVITQDELSNPVTSGESVSISCRSSKSLLYKDGKTYLNWFLQRPGQSPQLLIYLMSTRASGVSDRFSGSGSGTDFTLEISRVKAEDVGVYYCQQLVEYPRTFGGGTKLEIKR
notes: also called chimeric antibody of R18-22D7
B7: R10-10B2QH (antibody, human IgG1, kappa, V domains shown)
VH: QVQLEESGAELVRSGASVKLSCTASGFNIKDYYIHWVKQRPEQGLEWIGWNDPENGDTEYAPKFQGKATMTADTSSNTVYLQLSSLTSEDSAVYFCKSFDSYLEYWGQGTSVTVSS
VL: DIVMTQTTLSLPVNLGDQASISCRSSQSLVHTDGNTFLEWYLQRPGQSPKLLIYKVSIRFSGVPDRFSGSGSGTDFTLKISRVETEDLGVYYCFQGSHVPRTFGGGTKLEIKR
notes: also called chimeric antibody of R10-10B2
B8: R1-11C3QH (antibody, human IgG1, kappa, V domains shown)
VH: EVQLEESGAELVRSGASVKLSCTASGFNIKDYYMHWVKQRPEQGLEWIGWIDPENGDTEYAPKFQGKATLTADTSSNTAYLQLSTLTSEDNAVYYCNAAYYGDYVEDMDYWGQGTSVTVSS
VL: B7 VL with T8P, P12S, N14S, L29I, T32S, R44K, I58N, T85A, G96A, V99L
notes: also called chimeric antibody of R1-11C3
B9: R10-19B2QH (antibody, human IgG1, kappa, V domains shown)
VH: EVKLQESGPGMLQPSQTLSLTCSFSGFSLSTSGMGVSWIRQPSGKGLEWLAHIYWDDDKNFNPSLRSRLIISKDPSRNQVFLEITSVDTADTATYFCARKLYNDYDYILDYWGQGTSVTVSS
VL: B3 VL
B10: A2-G (antibody, human IgG1, kappa, V domains shown)
VH: QVTLKESGPALVKPTQTLTLTCTFSGFSLSTSGMGVSWIRQPPGKALEWLAHIYWDDDKNFNPSLRSRLTITKDPSKNQVVLTMTNMDPVDTATYFCARKLYNDYDYILDYWGQGTTVTVSS
VL: DIVMTQSPLSLPVTPGEPASISCRSSKSLLHSNGITYLGWFLQKPGQSPQLLIYQMSNLASGVPDRFSGSGSGTDFTLKISRVEAEDVGVYYCAQNLELWTFGQGTRLEIKR
notes: also called humanized mutant antibody A2-G
B11: A2-I (antibody, V domains shown)
VH: B10 VH
VL: DIVMTQSPLSLPVTPGEPASISCRSSKSLLHSNGITYLIWFLQKPGQSPQLLIYQMSNLASGVPDRFSGSGSGTDFTLKISRVEAEDVGVYYCAQNLELWTFGQGTRLEIK
notes: also called humanized mutant antibody A2-I
B12: A2-P (antibody, V domains shown)
VH: B10 VH
VL: B11 VL with I39P
notes: also called humanized mutant antibody A2-P
B13: A2-Q (antibody, V domains shown)
VH: B10 VH
VL: B11 VL with I39Q
notes: also called humanized mutant antibody A2-Q
B14: A2-N (antibody, V domains shown)
VH: B10 VH
VL: B11 VL with I39N
notes: also called humanized mutant antibody A2-N
B15: A2-A (antibody, human IgG1, kappa, V domains shown)
VH: B10 VH
VL: B10 VL with G39A
notes: also called humanized mutant antibody A2-A
B16: A2-M (antibody, V domains shown)
VH: B10 VH
VL: B11 VL with I39M
notes: also called humanized mutant antibody A2-M

molecular target: T1, recombinant RSV-F protein (RSV A2 strain fusion (F) protein with added His tag) (human respiratory syncytial virus, A2 …, UniProt P03420 26-524); experiment: SPR (Biacore), antibody captured, RSV-F as analyte
T1 construct: also called RSV-F recombinant protein
T1 sequence (P03420 26-109, chain 1 of 2): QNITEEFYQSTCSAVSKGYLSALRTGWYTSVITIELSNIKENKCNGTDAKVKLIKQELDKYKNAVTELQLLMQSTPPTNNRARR
T1 sequence (P03420 137-524, chain 2 of 2): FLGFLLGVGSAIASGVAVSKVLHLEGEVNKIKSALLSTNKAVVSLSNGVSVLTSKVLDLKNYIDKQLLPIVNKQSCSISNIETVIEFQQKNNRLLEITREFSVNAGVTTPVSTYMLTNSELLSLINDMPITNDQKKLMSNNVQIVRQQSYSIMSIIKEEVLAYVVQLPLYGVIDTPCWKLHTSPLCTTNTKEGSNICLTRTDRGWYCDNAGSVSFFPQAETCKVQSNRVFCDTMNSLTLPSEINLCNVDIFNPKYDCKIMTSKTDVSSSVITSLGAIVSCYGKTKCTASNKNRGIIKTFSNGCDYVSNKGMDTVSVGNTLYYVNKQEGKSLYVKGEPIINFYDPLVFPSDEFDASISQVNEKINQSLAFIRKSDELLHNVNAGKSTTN

Binder	Kd [nM]	koff [s⁻¹]	kon [M⁻¹ s⁻¹]
B1	0.171	0.000115	673000
B2	0.205	0.000169	824000
B3	–	0.000339	1.03e+06
B4	–	2.69e-05	537000
B5	0.061	3.02e-05	495000
B6	3.54	0.00127	357000
B7	0.0489	3.68e-05	753000
B8	0.0256	1.41e-05	549000

molecular target: RSV-F protein of RSV A2 virus (as carried by the live virus in the neutralisation assay) (human respiratory syncytial virus, …, UniProt P03420 26-574); experiment: cell-based or functional assay
Sequence (P03420 26-574): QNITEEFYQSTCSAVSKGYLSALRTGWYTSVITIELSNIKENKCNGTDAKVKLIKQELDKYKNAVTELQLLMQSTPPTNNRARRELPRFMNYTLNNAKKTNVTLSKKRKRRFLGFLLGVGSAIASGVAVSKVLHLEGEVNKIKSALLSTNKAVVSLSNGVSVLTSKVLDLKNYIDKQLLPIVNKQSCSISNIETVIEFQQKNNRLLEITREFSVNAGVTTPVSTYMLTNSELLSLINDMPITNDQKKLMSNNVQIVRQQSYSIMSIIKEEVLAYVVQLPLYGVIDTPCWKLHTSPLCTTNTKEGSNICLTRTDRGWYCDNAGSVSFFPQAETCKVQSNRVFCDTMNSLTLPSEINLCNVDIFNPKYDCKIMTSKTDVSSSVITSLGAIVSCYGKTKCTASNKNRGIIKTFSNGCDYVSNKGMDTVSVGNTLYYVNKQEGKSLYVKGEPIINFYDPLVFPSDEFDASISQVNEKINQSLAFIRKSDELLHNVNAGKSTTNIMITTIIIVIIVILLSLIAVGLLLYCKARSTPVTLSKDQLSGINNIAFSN

Binder	Absolute IC50, neutralizing RSV A2 (HEp-2 cells, indirect ELISA) [µg/mL]
B1	0.00592
B2	0.101
B3	0.00745
B9	0.012
B4	0.0118
B5	0.0176
B6	0.03
B7	0.0968
B8	0.118

molecular target: RSV-F protein of RSV B9320 virus (as carried by the live virus in the neutralisation assay) (human respiratory syncytial virus, …); experiment: cell-based or functional assay

Binder	Absolute IC50, neutralizing RSV B9320 (HEp-2 cells, indirect ELISA) [µg/mL]
B3	0.266
B9	0.021
B4	0.0726
B6	0.00893
B7	0.0915
B8	0.0666

molecular target: RSV-F protein of RSV A Long virus (as carried by the live virus in the neutralisation assay) (human respiratory syncytial virus, …, UniProt P12568 26-574); experiment: cell-based or functional assay

Binder	Absolute IC50, neutralizing RSV A Long (HEp-2 cells, indirect ELISA) [µg/mL]
B2	0.0432
B3	0.0199
B9	0.0102
B4	0.0258
B5	0.0733
B6	0.0683
B7	0.214
B8	0.316

molecular target: T1, recombinant RSV-F protein (RSV A2 …); experiment: SPR (Biacore), antibody captured, RSV-F as analyte; remark: another data set of the same source

Binder	koff [s⁻¹]	kon [M⁻¹ s⁻¹]
B10	0.000138	1.97e+06
B11	0.000162	3.07e+06
B12	0.000156	3.57e+06
B13	0.000166	2.38e+06
B14	0.000165	1.61e+06
B15	0.000117	2.3e+06
B16	0.000138	2.31e+06

molecular target: T1, recombinant RSV-F protein (RSV A2 …); experiment: SPR (Biacore), antibody captured, RSV-F as analyte; column head prints nM, Kd/Ka gives M

Binder	Kd [nM]
B10	0.07
B11	0.0528
B12	0.0438
B13	0.0698
B14	0.102
B15	0.0509
B16	0.0597
